Laboratory results taken from patent publication US20140087995A1 (published 2014).
Numbered stars: 1 amine (or outer) side, 2 acyl side, 3 side chain; on linkers, the order of the positions; unused ones are H or OH. Bridge positions count the residues as written; N and C are the ends. Side chains are listed from the residue outwards. Ends that are not written are not given here. * marks the point of attachment. C20 diacid = O=C(O)CCCCCCCCCCCCCCCCCCC(=O)*; γGlu = O=C(O)[C@H](CCC(=O)[*:2])N[*:1]; AEEA = NCCOCCOCC(=O)O

T1: human calcitonin receptor (human, UniProt P30988 25-474)
T1 construct: whole, on cells; Assay used cell membranes of the transfected BHK cells; also called hCTR; hCT
T1 sequence (looked up): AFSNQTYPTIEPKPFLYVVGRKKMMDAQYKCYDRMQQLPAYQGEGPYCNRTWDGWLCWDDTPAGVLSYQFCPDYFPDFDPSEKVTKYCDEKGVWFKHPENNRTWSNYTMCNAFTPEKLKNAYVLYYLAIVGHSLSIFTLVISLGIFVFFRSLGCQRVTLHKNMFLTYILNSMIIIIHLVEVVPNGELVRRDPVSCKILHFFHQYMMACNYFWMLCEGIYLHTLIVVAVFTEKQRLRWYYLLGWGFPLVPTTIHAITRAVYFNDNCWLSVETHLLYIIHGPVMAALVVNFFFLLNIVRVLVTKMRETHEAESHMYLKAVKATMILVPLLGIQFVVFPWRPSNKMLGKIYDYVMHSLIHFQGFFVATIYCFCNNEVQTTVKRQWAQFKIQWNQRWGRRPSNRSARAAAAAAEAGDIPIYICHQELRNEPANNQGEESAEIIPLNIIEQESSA

B1: N^ε1-[(4S)-4-carboxy-4-(19-carboxynonadecanoylamino)butanoyl]-[Arg17,Pro21,Pro27,Lys35]-h-amylin (peptide)
peptide: K([γGlu-C20 diacid])CNTATCATQRLANFLRHSSPNFGAIPSSTNVGSKTY-NH2
modifications: disulfide 2-7; N-terminus assumed
SMILES: CC[C@H](C)[C@H](NC(=O)[C@H](C)NC(=O)CNC(=O)[C@H](Cc1ccccc1)NC(=O)[C@H](CC(N)=O)NC(=O)[C@@H]1CCCN1C(=O)[C@H](CO)NC(=O)[C@H](CO)NC(=O)[C@H](Cc1c[nH]cn1)NC(=O)[C@H](CCCNC(=N)N)NC(=O)[C@H](CC(C)C)NC(=O)[C@H](Cc1ccccc1)NC(=O)[C@H](CC(N)=O)NC(=O)[C@H](C)NC(=O)[C@H](CC(C)C)NC(=O)[C@H](CCCNC(=N)N)NC(=O)[C@H](CCC(N)=O)NC(=O)[C@@H](NC(=O)[C@H](C)NC(=O)[C@@H]1CSSC[C@H](NC(=O)[C@@H](N)CCCCNC(=O)CC[C@H](NC(=O)CCCCCCCCCCCCCCCCCCC(=O)O)C(=O)O)C(=O)N[C@@H](CC(N)=O)C(=O)N[C@@H]([C@@H](C)O)C(=O)N[C@@H](C)C(=O)N[C@@H]([C@@H](C)O)C(=O)N1)[C@@H](C)O)C(=O)N1CCC[C@H]1C(=O)N[C@@H](CO)C(=O)N[C@@H](CO)C(=O)N[C@H](C(=O)N[C@@H](CC(N)=O)C(=O)N[C@H](C(=O)NCC(=O)N[C@@H](CO)C(=O)N[C@@H](CCCCN)C(=O)N[C@H](C(=O)N[C@@H](Cc1ccc(O)cc1)C(N)=O)[C@@H](C)O)C(C)C)[C@@H](C)O
notes: Synthetic analogue; also called compound 35
B2: N{Alpha-1}-[(4S)-4-carboxy-4-(19-carboxynonadecanoylamino)butanoyl]-[Glu14,Arg17,Pro21,Pro27,Lys34]-h-amylin (peptide)
peptide: {C20 diacid-γGlu}-KCNTATCATQRLAEFLRHSSPNFGAIPSSTNVGKNTY-NH2
modifications: disulfide 2-7
SMILES: CC[C@H](C)[C@H](NC(=O)[C@H](C)NC(=O)CNC(=O)[C@H](Cc1ccccc1)NC(=O)[C@H](CC(N)=O)NC(=O)[C@@H]1CCCN1C(=O)[C@H](CO)NC(=O)[C@H](CO)NC(=O)[C@H](Cc1c[nH]cn1)NC(=O)[C@H](CCCNC(=N)N)NC(=O)[C@H](CC(C)C)NC(=O)[C@H](Cc1ccccc1)NC(=O)[C@H](CCC(=O)O)NC(=O)[C@H](C)NC(=O)[C@H](CC(C)C)NC(=O)[C@H](CCCNC(=N)N)NC(=O)[C@H](CCC(N)=O)NC(=O)[C@@H](NC(=O)[C@H](C)NC(=O)[C@@H]1CSSC[C@H](NC(=O)[C@H](CCCCN)NC(=O)CC[C@H](NC(=O)CCCCCCCCCCCCCCCCCCC(=O)O)C(=O)O)C(=O)N[C@@H](CC(N)=O)C(=O)N[C@@H]([C@@H](C)O)C(=O)N[C@@H](C)C(=O)N[C@@H]([C@@H](C)O)C(=O)N1)[C@@H](C)O)C(=O)N1CCC[C@H]1C(=O)N[C@@H](CO)C(=O)N[C@@H](CO)C(=O)N[C@H](C(=O)N[C@@H](CC(N)=O)C(=O)N[C@H](C(=O)NCC(=O)N[C@@H](CCCCN)C(=O)N[C@@H](CC(N)=O)C(=O)N[C@H](C(=O)N[C@@H](Cc1ccc(O)cc1)C(N)=O)[C@@H](C)O)C(C)C)[C@@H](C)O
notes: Synthetic analogue; also called compound 36
B3: N^ε1-[(4S)-4-carboxy-4-[[(4S)-4-carboxy-4-(19-carboxynonadecanoylamino)butanoyl]amino]butanoyl]-[Asp14,Arg17,Pro21,Pro26,Asp35]-h-amylin (peptide)
peptide: K([γGlu-γGlu-C20 diacid])CNTATCATQRLADFLRHSSPNFGAPLSSTNVGSDTY-NH2
modifications: disulfide 2-7; N-terminus assumed
SMILES: CC(C)C[C@H](NC(=O)[C@H](CCCNC(=N)N)NC(=O)[C@H](CCC(N)=O)NC(=O)[C@@H](NC(=O)[C@H](C)NC(=O)[C@@H]1CSSC[C@H](NC(=O)[C@@H](N)CCCCNC(=O)CC[C@H](NC(=O)CC[C@H](NC(=O)CCCCCCCCCCCCCCCCCCC(=O)O)C(=O)O)C(=O)O)C(=O)N[C@@H](CC(N)=O)C(=O)N[C@@H]([C@@H](C)O)C(=O)N[C@@H](C)C(=O)N[C@@H]([C@@H](C)O)C(=O)N1)[C@@H](C)O)C(=O)N[C@@H](C)C(=O)N[C@@H](CC(=O)O)C(=O)N[C@@H](Cc1ccccc1)C(=O)N[C@@H](CC(C)C)C(=O)N[C@@H](CCCNC(=N)N)C(=O)N[C@@H](Cc1c[nH]cn1)C(=O)N[C@@H](CO)C(=O)N[C@@H](CO)C(=O)N1CCC[C@H]1C(=O)N[C@@H](CC(N)=O)C(=O)N[C@@H](Cc1ccccc1)C(=O)NCC(=O)N[C@@H](C)C(=O)N1CCC[C@H]1C(=O)N[C@@H](CC(C)C)C(=O)N[C@@H](CO)C(=O)N[C@@H](CO)C(=O)N[C@H](C(=O)N[C@@H](CC(N)=O)C(=O)N[C@H](C(=O)NCC(=O)N[C@@H](CO)C(=O)N[C@@H](CC(=O)O)C(=O)N[C@H](C(=O)N[C@@H](Cc1ccc(O)cc1)C(N)=O)[C@@H](C)O)C(C)C)[C@@H](C)O
notes: Synthetic analogue; also called compound 1
B4: N^ε1-[(4S)-4-carboxy-4-[[(4S)-4-carboxy-4-(19-carboxynonadecanoylamino)butanoyl]amino]butanoyl]-[Asp14,Arg17,Pro22,Pro26,Asp35]-h-amylin (peptide)
peptide: K([γGlu-γGlu-C20 diacid])CNTATCATQRLADFLRHSSNPFGAPLSSTNVGSDTY-NH2
modifications: disulfide 2-7; N-terminus assumed
SMILES: CC(C)C[C@H](NC(=O)[C@H](CCCNC(=N)N)NC(=O)[C@H](CCC(N)=O)NC(=O)[C@@H](NC(=O)[C@H](C)NC(=O)[C@@H]1CSSC[C@H](NC(=O)[C@@H](N)CCCCNC(=O)CC[C@H](NC(=O)CC[C@H](NC(=O)CCCCCCCCCCCCCCCCCCC(=O)O)C(=O)O)C(=O)O)C(=O)N[C@@H](CC(N)=O)C(=O)N[C@@H]([C@@H](C)O)C(=O)N[C@@H](C)C(=O)N[C@@H]([C@@H](C)O)C(=O)N1)[C@@H](C)O)C(=O)N[C@@H](C)C(=O)N[C@@H](CC(=O)O)C(=O)N[C@@H](Cc1ccccc1)C(=O)N[C@@H](CC(C)C)C(=O)N[C@@H](CCCNC(=N)N)C(=O)N[C@@H](Cc1c[nH]cn1)C(=O)N[C@@H](CO)C(=O)N[C@@H](CO)C(=O)N[C@@H](CC(N)=O)C(=O)N1CCC[C@H]1C(=O)N[C@@H](Cc1ccccc1)C(=O)NCC(=O)N[C@@H](C)C(=O)N1CCC[C@H]1C(=O)N[C@@H](CC(C)C)C(=O)N[C@@H](CO)C(=O)N[C@@H](CO)C(=O)N[C@H](C(=O)N[C@@H](CC(N)=O)C(=O)N[C@H](C(=O)NCC(=O)N[C@@H](CO)C(=O)N[C@@H](CC(=O)O)C(=O)N[C@H](C(=O)N[C@@H](Cc1ccc(O)cc1)C(N)=O)[C@@H](C)O)C(C)C)[C@@H](C)O
notes: Synthetic analogue; also called compound 3
B5: N^ε1-[2-[2-[2-[[(4S)-4-carboxy-4-(19-carboxynonadecanoylamino)butanoyl]amino]ethoxy]ethoxy]acetyl]-[Arg17,Pro21,Pro27]-h-amylin (peptide)
peptide: K([AEEA-γGlu-C20 diacid])CNTATCATQRLANFLRHSSPNFGAIPSSTNVGSNTY-NH2
modifications: disulfide 2-7; N-terminus assumed
SMILES: CC[C@H](C)[C@H](NC(=O)[C@H](C)NC(=O)CNC(=O)[C@H](Cc1ccccc1)NC(=O)[C@H](CC(N)=O)NC(=O)[C@@H]1CCCN1C(=O)[C@H](CO)NC(=O)[C@H](CO)NC(=O)[C@H](Cc1c[nH]cn1)NC(=O)[C@H](CCCNC(=N)N)NC(=O)[C@H](CC(C)C)NC(=O)[C@H](Cc1ccccc1)NC(=O)[C@H](CC(N)=O)NC(=O)[C@H](C)NC(=O)[C@H](CC(C)C)NC(=O)[C@H](CCCNC(=N)N)NC(=O)[C@H](CCC(N)=O)NC(=O)[C@@H](NC(=O)[C@H](C)NC(=O)[C@@H]1CSSC[C@H](NC(=O)[C@@H](N)CCCCNC(=O)COCCOCCNC(=O)CC[C@H](NC(=O)CCCCCCCCCCCCCCCCCCC(=O)O)C(=O)O)C(=O)N[C@@H](CC(N)=O)C(=O)N[C@@H]([C@@H](C)O)C(=O)N[C@@H](C)C(=O)N[C@@H]([C@@H](C)O)C(=O)N1)[C@@H](C)O)C(=O)N1CCC[C@H]1C(=O)N[C@@H](CO)C(=O)N[C@@H](CO)C(=O)N[C@H](C(=O)N[C@@H](CC(N)=O)C(=O)N[C@H](C(=O)NCC(=O)N[C@@H](CO)C(=O)N[C@@H](CC(N)=O)C(=O)N[C@H](C(=O)N[C@@H](Cc1ccc(O)cc1)C(N)=O)[C@@H](C)O)C(C)C)[C@@H](C)O
notes: Synthetic analogue; also called compound 41
B6: N^α1-[(4S)-4-carboxy-4-(19-carboxynonadecanoylamino)butanoyl]-[Glu14,Arg17,Pro21,Pro25,Pro28,Pro29]-h-amylin (peptide)
peptide: {C20 diacid-γGlu}-KCNTATCATQRLAEFLRHSSPNFGPILPPTNVGSNTY-NH2
modifications: disulfide 2-7
SMILES: CC[C@H](C)[C@H](NC(=O)[C@@H]1CCCN1C(=O)CNC(=O)[C@H](Cc1ccccc1)NC(=O)[C@H](CC(N)=O)NC(=O)[C@@H]1CCCN1C(=O)[C@H](CO)NC(=O)[C@H](CO)NC(=O)[C@H](Cc1c[nH]cn1)NC(=O)[C@H](CCCNC(=N)N)NC(=O)[C@H](CC(C)C)NC(=O)[C@H](Cc1ccccc1)NC(=O)[C@H](CCC(=O)O)NC(=O)[C@H](C)NC(=O)[C@H](CC(C)C)NC(=O)[C@H](CCCNC(=N)N)NC(=O)[C@H](CCC(N)=O)NC(=O)[C@@H](NC(=O)[C@H](C)NC(=O)[C@@H]1CSSC[C@H](NC(=O)[C@H](CCCCN)NC(=O)CC[C@H](NC(=O)CCCCCCCCCCCCCCCCCCC(=O)O)C(=O)O)C(=O)N[C@@H](CC(N)=O)C(=O)N[C@@H]([C@@H](C)O)C(=O)N[C@@H](C)C(=O)N[C@@H]([C@@H](C)O)C(=O)N1)[C@@H](C)O)C(=O)N[C@@H](CC(C)C)C(=O)N1CCC[C@H]1C(=O)N1CCC[C@H]1C(=O)N[C@H](C(=O)N[C@@H](CC(N)=O)C(=O)N[C@H](C(=O)NCC(=O)N[C@@H](CO)C(=O)N[C@@H](CC(N)=O)C(=O)N[C@H](C(=O)N[C@@H](Cc1ccc(O)cc1)C(N)=O)[C@@H](C)O)C(C)C)[C@@H](C)O
notes: Synthetic analogue; also called compound 6

target: T1, human calcitonin receptor; experiment: ratio IC50 hCTR / IC50 hAmylin-R of the two SPA competition assays; reference: human amylin receptor
Method in brief: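 IC₅₀ values were derived by one-site competition analysis of SPA counts. Cell membranes (35 ng/μL) with SPA beads were incubated with test compounds for 120 min at 25° C in Hepes buffer, pH 7.4, containing CaCl2, MgCl₂, OA and Tween20.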

| Ratio hCT/hAmylin binding | Binder |
| --- | --- |
| 50.3 | B1 |
| 15.7 | B2 |
| 27.6 | B3 |
| 17.3 | B4 |
| 49.9 | B5 |
| 20 | B6 |

target: T1, human calcitonin receptor; experiment: SPA radioligand competition (125I-calcitonin), membranes of BHK cells with human calcitonin receptor
Method in brief: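 BHK hCTR membranes 35 ng/μL + SPA beads 0.05 mg/well; buffer 50 mM Hepes pH 7.4, 1 mM CaCl2, 5 mM MgCl₂, 0.1% OA, 0.02% Tween20. 120 min, 25° C., shaking. Scintillation count; IC50 by one-site binding competition.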

| IC50 [nM] | Binder |
| --- | --- |
| 48.8 | B1 |
| 6.3 | B2 |
| 32.5 | B3 |
| 19.5 | B4 |
| 21.3 | B5 |
| 19.9 | B6 |
